According to IntAct's records for PubMed 20228790:

Biological target: PRKCB, P05771-1
Sequence (P05771 whole entry, looked up): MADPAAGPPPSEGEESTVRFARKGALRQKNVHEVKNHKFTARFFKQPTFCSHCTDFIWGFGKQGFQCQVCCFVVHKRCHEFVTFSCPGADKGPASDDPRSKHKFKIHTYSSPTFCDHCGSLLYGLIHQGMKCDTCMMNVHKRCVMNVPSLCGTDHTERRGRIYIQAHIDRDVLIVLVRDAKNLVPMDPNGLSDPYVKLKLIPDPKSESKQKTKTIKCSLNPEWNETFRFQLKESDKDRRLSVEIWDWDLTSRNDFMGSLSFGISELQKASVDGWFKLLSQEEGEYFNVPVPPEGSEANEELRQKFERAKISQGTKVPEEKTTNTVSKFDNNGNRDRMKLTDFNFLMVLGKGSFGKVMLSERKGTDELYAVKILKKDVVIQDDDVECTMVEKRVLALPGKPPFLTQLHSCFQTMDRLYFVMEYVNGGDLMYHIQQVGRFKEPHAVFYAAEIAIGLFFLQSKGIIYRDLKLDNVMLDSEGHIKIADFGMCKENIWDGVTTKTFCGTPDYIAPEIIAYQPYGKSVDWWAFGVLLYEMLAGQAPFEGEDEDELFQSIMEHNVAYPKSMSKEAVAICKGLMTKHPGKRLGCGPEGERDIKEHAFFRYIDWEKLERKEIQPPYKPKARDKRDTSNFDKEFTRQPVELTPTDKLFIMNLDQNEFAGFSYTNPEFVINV

- effect of a mutation on the interaction: disrupting interaction
Substance: Histone H3.1 (Homo sapiens) (from UniProt P68431) T7A
